The DeepSol protein solubility set

Experiment: soluble on expression in E. coli; label from the status in PepcDB or PDB records

Question: For “MGSDKIHHHHHHMFAERLERARKAAGLSMNALANEVGLSANAIKKYEHGTAMPSSSNLLKLAKALDVRTEYFFRPTKVKLEGVEYRKRASTPKKVLDRINGDVLEQAERWQELLELYPDSVKPIPEFTLPNELPEQITSIEQVEDLAIQMRHAWDLGLNPIHDMIDTLEAKGVMIITTDVETDKKFDGLAGKIGSTPVVVISTAQSGDRQRFTLAHELGHLVVHGRLVEALDEEKACNTFAGAFLLPTQTLIEHLGEKRRHIEPRELLMLKHEYGISMLAALFRAGQCGIITPATQKNLFMLFSKNGWRTEEPGKAYPHESTYLHKQLVYRALGEEYIGESKAAELLGMSVSSFHKERKLEVPIQSQLALEAKGAAASN”, which “soluble on expression in E. coli” value is on record?
Answer: not soluble

Question: Which “soluble on expression in E. coli” value does the source give for “SAAARATTPADGEEPAPEAEALAAARERSSRFLSGLELVKQGAEARVFRGHFQGRAAVIKHRFPKGYRHPALEARLGRRRTVQEARALLRCRRAGISAPVVFFVDYASNCLYMEEIEGSVTVRDYIQSTMETEKTPQGLSNLAKTIGQVLARMHDEDLIHGDLTTSNMLLKPPLEQLNIVLIDFGLSFISALPEDKGVDLYVLEKAFLSTHPNTETVFEAFLKSYSTSSKKARPVLKKLDEVRLRGRKRSMVG” here?
Answer: soluble

Question: For “IARVVVHPDYRADGLGILAVRTAVEWIEERRVPEMRMRKHLVETIAQMARFNPFFEKAGFYYLWDTASGKPVLYKPLSEEAE”, which “soluble on expression in E. coli” value is on record?
Answer: not soluble

Question: With “AKDALLLWCQMKTAGYPNVNVHNFTTSWRDGLAFNAIVHKHRPDLLDFESLKKCNAHYNLQNAFNLAEKELGLTKLLDPEDVNVDQPDEKSIITYVATYYHYFSKMKALAVEGK” as the sequence, how does the “soluble on expression in E. coli” value read?
Answer: soluble

Question: With “MSLDLPAHARVVIVGGGVMGVGLAYHLAHEGWGGDTVLLEKAELTSGSTWHAAGQITHSTSSFGLGKCVDYNIGLYSGKLEAETGQAVTWHGCGSFRLAYTEDEMDWLRHTLSVGRSLGFNIELVGPKRIAELHPFYNLDGVLGALHTPDDGHVDPTNVTMAMAAGARAKGVRIFRHTCATNITQGANGEWVVETGKGTITCEHVVNAGGTYARQMGEWSGLQLPMTSMTHHYFVTEPVPEFQSLDRELPVIRDDRKVSGYIRMEQKRGLIGIYEKANPNAVWIDECPWDYENWLFDADYDRVMPWLEESLNRMPIFADLGIQREVHGAISHPPDGNPLIGPAPGVRNYWCCCGTQIGIGWGPGLSRELARWIVHGAADISMRDFDPRRFGAYATKDWQVIKAREDYCLRHEIPFPHFNRLAGRPVKPSPLYDRLKEKGAVYEEVYGHERPRWFARGIEQRDHYGFGRTPVHDMVATECAAVRSAAGIMDISAFTRVEVSGPDAGALLDRLTANRLPQKPGGIALTHMLNRRGRIELETTVVKLDEDRFYLVCAAFFEQRLLDHLAAHRGTADITVRNLSTDWAALALNGPHARDILAACTEADLSNARFKWLTAQQITVAGHSLWALRMSYAGELGWELHIPRDHALAVYDALWAAGQRYGLTDYGSFAMNALRMEKAFKGAGELTNEVTLAEADVLRFARTDKDYLGRDKTLNAGNLPWVCAYLEIAPDGRFDGNGGEAVLLDGKVVGSTASVAYGHTVGKILAFAYVKPQVNVPGTEVEVIIAGNPRKGRILGAPAYDPDSTKPRADAEGHHHHHH” as the sequence, how does the “soluble on expression in E. coli” value read?
Answer: soluble

Question: With “MGGDFGPSVTVPAALQALNSNSQLTLLLVGNSDAITPLLAKADFEQRSRLQIIPAQSVIASDARPSQAIRASRGSSMRVALELVKEGRAQACVSAGNTGALMGLAKLLLKPLEGIERPALVTVLPHQQKGKTVVLDLGANVDCDSTMLVQFAIMGSVLAEEVVEIPNPRVALLNIGEEEVKGLDSIRDASAVLKTIPSINYIGYLEANELLTGKTDVLVCDGFTGNVTLKTMEGVVRMFLSLLKSQGEGKKRSWWLLLLKRWLQKSLTRRFSHLNPDQYNGACLLGLRGTVIKSHGAANQRAFAVAIEQAVQAVQRQVPQRIAARLESVYPAGFELLDGGKSGTLR” as the sequence, how does the “soluble on expression in E. coli” value read?
Answer: soluble

Question: With “MNPEVTVLMSVYNDKNYLSESIESILNQTFENFEFLIINDASTDGSGELLEEYSKKDKRIRLIHNKNNRGLSYSLAEGVSLAKAPWIARMDADDVSFKDRLAVQMDHVKAHSELDILGSYVIDIDDKGNELEIRKVPTTHKEIANLIWTCPFIHPTVLFKKDSIIKAGSYDRNLRRRQDYDLWFRCLEAKLKFENIDKPLLYYRSTDDYYKKNNFKVQVQQAKMGFAGARRVKAKPIAYIGITVAFIKGILPYHIRKPLSQLLKKVDPRRALEHHHHHH” as the sequence, how does the “soluble on expression in E. coli” value read?
Answer: soluble

Question: With “MNRKGNMKRKTLKNIVEYDGIGLHKGEIIKMKLIPAKSGGIIFRMVNMPEGKNEILLDYRNIFDLTRGTNLKNEHGAMVFTIEHFLSALYVLGITDLVIELNGNELPICDGSAIKFLDLFQESGIVELDEYVEEIIVKEPIFLSKGDKHVIALPYPDGYKLTYAIRFEHTFLKSQLAEFEITEKNYRKEIASARTFGFDYEVEYLKQNNLALGGTLENAIVIKKDGVLNPDGLRFDDEFVRHKMLDIIGDLKILNRPIRAHIIAIKAGHLIDIEFAKILDNIKLEHHHHHH” as the sequence, how does the “soluble on expression in E. coli” value read?
Answer: soluble

Question: With “MGSDKIHHHHHHMFEKQFNHRTLETSLGPVEIEGPVTSQILATYKLDPGLTAFRQPAEQHEALVEIAALEEGRIIIARQGNDIIGYVTFLYPDPYETWSEGNNPYILELGAIEVAARFRGQQIGKKLLEVSMLDPAMEHYLILTTEYYWHWDLKGSGLSVWDYRKIMEKMMNHGGLVFFPTDDPEIASHPANCLMARIGKHVAPEVVAHFDALRLRRRFMYD” as the sequence, how does the “soluble on expression in E. coli” value read?
Answer: not soluble

Question: For “MAHHHHHHMNASGATASEGKNPPRDARTVSFHPESTFHEQHNAASQRFSHTSEPGWESRESNSGYAAQDGGDTANEGIRRSYYKRLYRFYRKYNPQKLCNVEKLLRECRGEEEQLFAILVGKYGPEPEEESSMLSGDCVFSSAGDSVMHYSGKRCQFPKKVKPEEGNTDCETPYWAGASSLIGDRDLLSLLQNLETPNVELQKCYMGVFAEHPTDCWNGMAYITRAEGIAPANTKFLGHTWVGTLGSGKVLVHEGKKFHRTTLYCTEECQKRGNHERWRLSVYRGEVSYLILLRTVWDPVVVPEPLPLNRSNLSEREVHSSLDGFPTRLSSMSSADSGGSGSRQPIQPPQPQQHTVTPAFVQFTKLLEELESRIIERLEGLERRMSRLENM”, which “soluble on expression in E. coli” value is on record?
Answer: not soluble

Question: With “MTGSQFPREELFAPGHRGCAGCGAAIVARLALKAAGKNTIVANATGCLEVMTTPYPETAWRVPWIHVAFENAAAVASGIEGAVVALKRKKGKYGEEKVNVIAFGGDGGTADIGFQALSGAMERGHDMVYIMYDNEAYMNTGVQRSGSTPFMASTTTSPAGSHIRGENRPKKDMPMIMAAHGIPYIATASISYPEDFMNKVKKACEVNGPAFIQVLQPCTTGWGYPAENTVEMGRLAVETGVWPLFEIENGEFKLNYKPLKRKPIEEYLKVQKRYRHLKPEDISVIQETIDMKCDEYGL” as the sequence, how does the “soluble on expression in E. coli” value read?
Answer: not soluble

Question: Which “soluble on expression in E. coli” value does the source give for “MERKKAVVLLSGGLDSSTVLAYAISLGYEVHAISFDYGQRHSREMNSSEELAKYYGVDRKIVHVDLRSIGKSALTDDIEVPSRDLESIPEEIPVTYVPARNTIFLSIAAAYAESIGSTDIFIGANAIDYSGYPDCRPEYFNAMEKALTLGTEIGLRKGMHINVPLQYLTKADIIRMGLKLGVPYEKTWSCYKGGEKACGECDSCLLRLKGFMEAGSEDPLEYEKYPTFYKDYIEKRKK” here?
Answer: soluble

Question: For “MGSDKIHHHHHHMFFYNIHQPMKTLIENLTSDLLPNQIFQTGFSFLIILKGNSLLKLDSNVLIFIMSGTMKVSSAQQELATVRERHIFFWDKEDDYTCEMLSDSQVILFAFGDLIVHDLLTFRPFGAISDSSVSKDVGLKFAEPLNSFLQLLAQYMEMNLYDLSLYIAKQRELFYILNSVYNEQELAILFSSLTEQSSRFKEQILENYLSAKNVGELASLLGYGVTNFRAKFKEQFGVSVYRWLLNRKSQHIIYRITVYGDEFSQIIDDFGFSSPSHFNKFCRSQYGLTPCELRKKLKTNNNS”, which “soluble on expression in E. coli” value is on record?
Answer: not soluble

Question: With “DTDGLWAALTEAAASVEKLLATLPEHGARSSAERAEIAAAHDAARALRVRFLDTHADAVYDRLTDHRRVHLRLAELVEAAATAFPGLVPTQQQLAVERSLPQAAKEGHEIDQGIFLRAVLRSPLAGPHLLDAMLRPTPRALELLPEFVRTGEVEMEAVHLERRDGVARLTMCRDDRLNAEDGQQVDDMETAVDLALLDPGVRVGLLRGGVMSHPRYRGKRVFSAGINLKYLSQGGISLVDFLMRKELGYIHKLVRGVLTNDDRPGWWHSPRIEKPWVAAVDGFAIGGGAQLLLVFDRVLASSDAYFSLPAAKEGIIPGAANLRLGRFAGPRVSRQVILEGRRIWAKEPEARLLVDEVVEPDELDAAIERSLTRLDGDAVLANRRMLNLADESPDGFRAYMAEFALMQALRLYGHDVI” as the sequence, how does the “soluble on expression in E. coli” value read?
Answer: soluble

Question: Which “soluble on expression in E. coli” value does the source give for “MSHAVSRLRDLRMARVAKPFFARGSRAERCPRCRVIPSHCLCAWRPKVVARSAMCLVMHDVEPLKPSNTGWLIADVIGDTTAFSWSRTEVDPQLLALLADPQWQPYIVFPGEFVAPERVVSEVRQEEGKRPLFILLDATWSEARKMFRKSPYLEHLPVLSLSPEKLSRYKLRRSKRDDHFCTAEVAALCLELAGDEQVSQVLDAYLDVFSTHYLSAKFQKAIDPDDDVHARLKPFVLEHHHHHH” here?
Answer: not soluble

Question: With “KQLLTLKIKCSNQPERQILEKQLPDSMTVQKVKGLLSRLLKVPVSELLLSYESSKMPGREIELENDLQPLQFYSVENGDCLLVR” as the sequence, how does the “soluble on expression in E. coli” value read?
Answer: soluble

Question: With “MNAKEILVHSLRLLENGDARGWCDLFHPEGVLEFPYAPPGWKTRFEGRETIWAHMRLFPEHLTVRFTDVQFYETADPDLAIGEFHGDGVATVSGGKLAQDYISVLRTRDGQILLYRDFWNPLRHLEALGGVEAAAKIVQGA” as the sequence, how does the “soluble on expression in E. coli” value read?
Answer: soluble

Question: With “MSLELPAEVQEMPIYREWISGILAGKIASPFWEMAQPQKNQHCLDIGCGVSFLIYPWRDWQAFFYGQDVSNVARDTLNSRGSQLNSKLFKGVELGAAHQLKYTLSYFDLAIATGFSCYFPLEYWTSVLQAVKRVLKPDGHFVFDILNAAHPQAEDWAVLETYLGAEVFLEPVTEWEKIINAAGAKVVGRQPGEFFDLYKLRLEHHHHHH” as the sequence, how does the “soluble on expression in E. coli” value read?
Answer: soluble

Question: With “MGSDKIHHHHHHMNISTIVSNLKDLILEVRAPYDLEITGVSNHSSKVKKGDLFICRRGEKFDSHEIIPEVMEKGAVAVVVEREIDLDFPYIQVFDSRYFEAKVASLFFEDPWKDVLTFGVTGTNGKTTTTMMIYHMLTSLGERGSVLTTAVKRILGNSYYDDITTPDAITILSAMKENREGGGKFFALEVSSHALVQQRVEGVRFDVGIFTNISRDHLDFHGTFENYLKAKLHLFDLLKDDGVAVLNESLADAFNRKSRKITFGTSKNADYRLGNIEVSWEGTQFVLETPDGLLKVFTRAIGDFNAYNAAAAIAALHQLGYDPKDLASSLETFTGVEGRFEVVRGAKKIGLNVVVDFAHSPDALEKLLKNVRKISQGRVIVVFGAGGNSDRGKRPMMSEVASKLADVVILTTDDPRGEDPEQIMEDLIKGIDKRKPYLVLFDRREAIETALTIANRGDSVVIAGRGHERYQIIDEEKKVPFQDREVVEEIIRDKLKGRKYAQ” as the sequence, how does the “soluble on expression in E. coli” value read?
Answer: not soluble

Question: Which “soluble on expression in E. coli” value does the source give for “MALLERILARDNLITALKRVEANQGAPGIDGVSTDQLRDDVRAHWSTIRAQLLAGTYRPAPVRRVEIPKPGGGTRQLGIPTVVDRLIQQAILQELTPIFDPDFSPSSFGFRPGRNAHDAVRQAQGYIQEGYRYVVDMDLEKFFDRVNHDILMSRVARKVKDKRVLKLIRAYLQAGVMIEGVKVQTEEGTPQGGPLSPLLANILLDDLDKELEKRGLKFCRYADDCNIYVKSLRAGQRVKQSIQRFLEKTLKLKVNEEKSAVDRPWKRAFLGFSFTPERKARIRLAPRSIQRLKQRIRQLTNPNWSISMPERIHRVNQYVMGWIGYFRLVETPSVLQTIEGWIRRRLRLCQWLQWKRVRTRIRELRALGLKETAVMEIANTRKGAWRTTKTPQLHQALGKTYWTAQGLKSLTQRYFELRQG” here?
Answer: not soluble

Question: Which “soluble on expression in E. coli” value does the source give for “AQKHVAIALCGKGNIGSSWLKLFAEQKEKLEQRHGMNFELVAVVDSQTYWFNEQGINPNQVATHFQDEALPNQEQSWLKKLGALEGYDEAVVIDVTASEELAEQYLDIAEHGLHLISANKVAGSAAGNYYYQVKDAFHKIGRHWLYNATVGAGLPINHTVRDLRESGDDIMALSGIFSGTLSWLFQQYDGSL” here?
Answer: not soluble
